Reference: US20220160760A1

Molecular target: carcinoembryonic antigen (CEA) (UniProt P06731)
Assay: cell-based or functional assay

Sequence of UniProt P06731 (P06731 35-702 limits assumed): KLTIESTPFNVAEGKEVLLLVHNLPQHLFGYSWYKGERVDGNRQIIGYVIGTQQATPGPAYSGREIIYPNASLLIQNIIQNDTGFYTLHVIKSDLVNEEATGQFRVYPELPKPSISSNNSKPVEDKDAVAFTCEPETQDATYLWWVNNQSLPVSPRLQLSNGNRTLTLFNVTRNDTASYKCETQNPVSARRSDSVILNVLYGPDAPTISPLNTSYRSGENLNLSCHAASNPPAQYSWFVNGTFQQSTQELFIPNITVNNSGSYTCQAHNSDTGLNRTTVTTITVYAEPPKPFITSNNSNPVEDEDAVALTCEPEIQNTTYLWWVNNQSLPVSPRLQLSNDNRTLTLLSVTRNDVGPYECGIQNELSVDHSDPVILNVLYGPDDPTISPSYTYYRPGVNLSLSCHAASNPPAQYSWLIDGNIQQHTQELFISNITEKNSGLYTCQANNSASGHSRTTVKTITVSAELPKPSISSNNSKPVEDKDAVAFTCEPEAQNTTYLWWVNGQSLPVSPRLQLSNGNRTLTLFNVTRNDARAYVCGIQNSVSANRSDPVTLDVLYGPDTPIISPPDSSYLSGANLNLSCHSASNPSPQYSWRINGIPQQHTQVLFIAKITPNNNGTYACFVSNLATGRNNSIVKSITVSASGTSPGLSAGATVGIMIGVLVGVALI

- IL-2 secretion by ELISA, T-cells mixed with LoVo-OKT3 cells, average of three donors (non-transduced cells 0.80 ng/ml): 5 ng/mL
Substance: MFE23 CoStAR (MFE23.scFv fused to full length human CD28) (receptor)
